Consider one molecule from US20200123264A1 (Regeneron, published 2020).

The target of this experiment is T1, human LEPR FNIII-MMH (human, UniProt P48357 636-839, limits assumed).
T1 construct: domain: FNIII; Transiently expressed, captured from supernatant on anti-myc beads
T1 sequence (looked up): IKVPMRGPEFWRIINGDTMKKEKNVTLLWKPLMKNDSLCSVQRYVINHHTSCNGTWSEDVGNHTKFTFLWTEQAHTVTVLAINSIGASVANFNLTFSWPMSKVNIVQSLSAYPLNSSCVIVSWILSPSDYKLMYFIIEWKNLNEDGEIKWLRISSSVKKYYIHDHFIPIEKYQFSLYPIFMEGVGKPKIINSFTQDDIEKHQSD
The experiment is described as follows: Luminex, myc-captured LEPR protein on beads, Ab 0.5 µg/mL. Here is the method: Aliquots of microspheres with immobilized anti-myc monoclonal antibodies, prepared as described above, were added individually to 1 mL of the each of these protein supernatants. The microspheres were gently mixed, incubated for two hours at 25° C., washed twice with 1 mL of DBPS, centrifuged to remove the supernatant and finally resuspended in 1 mL of DPBS buffer. Forty eight μL of anti-myc IgG coupled microspheres from individual reactions with full length human LEPR and with each of the human LEPR domain proteins were withdrawn and mixed together in 3.6 mL of PBS+20 mg/mL BSA+0.05% sodium azide (blocking buffer).
From this mixed pool, 75 μL of microspheres were plated per well on a 96 well filter plate (Millipore, Cat. No: MSBVN1250) and mixed with 25 μL of individual anti-human LEPR monoclonal antibodies (0.5 or 5 μg/mL), incubated for two hours at 25° C. and then washed twice with 200 μL of DPBS with 0.05% Tween 20 (washing buffer). […] After 30 minutes, the samples were washed twice with 200 μL of washing buffer and resuspended in 150 μL of wash buffer. The Median Fluorescence intensity (MFI) of the microspheres was measured in a Luminex Analyzer.

B1: H4H18462P2 (antibody, human IgG4, V domains shown)
VH: EVQLVESGGDLVQPGRSLRLSCAASGFTFSSFAMSWVRQAPGRGLEWVSSLSDSGDNTYYADSVKGRFTISRDNSKNTLYLQMNNLRAEDTAVYYCAKDLFSGWLFHGFDVWGQGTMVTVSS
VL: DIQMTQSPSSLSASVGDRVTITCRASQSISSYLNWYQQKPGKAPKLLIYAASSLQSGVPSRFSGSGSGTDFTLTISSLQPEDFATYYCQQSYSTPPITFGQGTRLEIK
notes: H4H prefix: human IgG4 Fc
With B1, the “Luminex MFI” value came out at 229 MFI.
